T1: human IL-10 receptor (hIL-10R alpha and beta chains) on HEK-Blue IL-10 reporter cells (human, UniProt Q13651 22-578; Q08334 20-325)
T1 sequence 1: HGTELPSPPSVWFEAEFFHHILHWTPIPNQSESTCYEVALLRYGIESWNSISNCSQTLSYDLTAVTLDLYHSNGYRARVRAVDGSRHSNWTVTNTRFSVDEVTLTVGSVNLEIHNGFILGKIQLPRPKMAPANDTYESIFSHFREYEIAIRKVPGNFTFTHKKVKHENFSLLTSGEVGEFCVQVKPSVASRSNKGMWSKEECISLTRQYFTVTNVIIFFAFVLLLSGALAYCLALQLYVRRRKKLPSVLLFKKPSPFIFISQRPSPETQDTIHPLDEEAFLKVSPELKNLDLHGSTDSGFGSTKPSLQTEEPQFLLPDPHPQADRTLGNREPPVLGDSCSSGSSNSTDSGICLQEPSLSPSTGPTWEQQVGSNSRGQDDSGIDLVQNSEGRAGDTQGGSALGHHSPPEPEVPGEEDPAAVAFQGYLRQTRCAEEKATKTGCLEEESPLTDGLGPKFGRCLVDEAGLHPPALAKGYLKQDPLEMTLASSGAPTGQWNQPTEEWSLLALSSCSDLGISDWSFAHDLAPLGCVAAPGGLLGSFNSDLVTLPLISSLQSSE
T1 sequence 2: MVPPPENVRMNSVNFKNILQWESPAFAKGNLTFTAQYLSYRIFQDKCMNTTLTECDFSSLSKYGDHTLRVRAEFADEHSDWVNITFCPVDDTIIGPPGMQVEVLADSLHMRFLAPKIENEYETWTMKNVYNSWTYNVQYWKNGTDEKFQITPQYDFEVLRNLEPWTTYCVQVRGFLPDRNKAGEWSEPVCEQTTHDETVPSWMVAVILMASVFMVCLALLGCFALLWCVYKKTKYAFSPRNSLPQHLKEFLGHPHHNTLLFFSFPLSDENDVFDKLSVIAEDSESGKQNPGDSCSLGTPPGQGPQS

B1: IL10R binding molecule of SEQ ID NO: 296 (bispecific antibody)
chain: QVQLQESGGGSVQAGGSLRLSCGASGYTYSSYCMGWFRQVPGKEREGVAVIDSDGSTSYADSVKGRFTISKDNGKNTLYLQMNSLKPEDTAMYYCAADLGHYRPPCGVLYLGMDYWGKGTQVTVSSGGGSQVQLQESGGGSVQAGGSLRLSCAASGYSYSSYCMGWFRQAPGKEREGVATIDSDGMTRYADSVKGRFTISKDNAKNTLYLQMNSLKPEDTAMYYCAAPLYDCDSGAVGRNPPYWGQGTQVTVSSASHHHHHH
B2: IL10R binding molecule of SEQ ID NO: 301 (bispecific antibody)
chain: QVQLQESGGGSVQAGGSLRLSCAASGYSNCSYDMTWYRQAPGKEREFVSAIHSDGSTRYADSVKGRFFISQDNAKNTVYLQMNSLKPEDTAMYYCKTDPLHCRAHGGSWYSVRANYWGQGTQVTVSSGGGSQVQLQESGGGSVQAGGSLRLSCTVSRYTASVNYMGWFRQAPGKEREGVATIFTGAGTTYYANSVKGRFTISRDNAKNTAYLQMNSLKPEDTAIYYCAVDFRGGLLYRPAYEYTYRGQGTQVTVSSASHHHHHH
B3: IL10R binding molecule of SEQ ID NO: 294 (bispecific antibody)
chain: QVQLQESGGGSVQAGGSLRLSCGASGYTYSSYCMGWFRQVPGKEREGVAVIDSDGSTSYADSVKGRFTISKDNGKNTLYLQMNSLKPEDTAMYYCAADLGHYRPPCGVLYLGMDYWGKGTQVTVSSGGGSQVQLQESGGGSVQAGGSLRLSCTVSRYTASVNYMGWFRQAPGKEREGVATIFTGAGTTYYANSVKGRFTISRDNAKNTAYLQMNSLKPEDTAIYYCAVDFRGGLLYRPAYEYTYRGQGTQVTVSSASHHHHHH
B4: IL10R binding molecule of SEQ ID NO: 258 (bispecific antibody)
chain: QVQLQESGGGSVQAGGSLRLSCAASRYLYSIDYMAWFRQSPGKEREPVAVIYTASGATFYPDSVKGRFTISQDNAKMTVYLQMNSLKSEDTAMYYCAAVRKTDSYLFDAQSFTYWGQGTQVTVSSGGGSQVQLQESGGGSVQAGGSLRLSCAASRYTYNSYCMGWFRQAPGKEREGVATIDSDGMTRYADSVKGRFTISKDNAKNTLYLQMNSLKPEDTAMYYCAADADCTIAAMTTNPLGQGTQVTVSSASHHHHHH
B5: IL10R binding molecule of SEQ ID NO: 300 (bispecific antibody)
chain: QVQLQESGGGSVQAGGSLRLSCAASGYSNCSYDMTWYRQAPGKEREFVSAIHSDGSTRYADSVKGRFFISQDNAKNTVYLQMNSLKPEDTAMYYCKTDPLHCRAHGGSWYSVRANYWGQGTQVTVSSGGGSQVQLQESGGGSVQAGGSLRLSCAASRYTYNSYCMGWFRQAPGKEREGVATIDSDGMTRYADSVKGRFTISKDNAKNTLYLQMNSLKPEDTAMYYCAADADCTIAAMTTNPLGQGTQVTVSSASHHHHHH
B6: IL10R binding molecule of SEQ ID NO: 295 (bispecific antibody)
chain: QVQLQESGGGSVQAGGSLRLSCGASGYTYSSYCMGWFRQVPGKEREGVAVIDSDGSTSYADSVKGRFTISKDNGKNTLYLQMNSLKPEDTAMYYCAADLGHYRPPCGVLYLGMDYWGKGTQVTVSSGGGSQVQLQESGGGSVEAGGSLRLSCAASGYTHSSYCMGWFRQAPGKEREGVAAIDVDGSTTYADSVKGRFTISKDNAKNTLYLQMNSLKPEDTGMYYCAAEFADCSSNYFLPPGAVRYWGQGTQVTVSSASHHHHHH
B7: IL10R binding molecule of SEQ ID NO: 297 (bispecific antibody)
chain: QVQLQESGGGSVQAGGSLRLSCGASGYTYSSYCMGWFRQVPGKEREGVAVIDSDGSTSYADSVKGRFTISKDNGKNTLYLQMNSLKPEDTAMYYCAADLGHYRPPCGVLYLGMDYWGKGTQVTVSSGGGSQVQLQESGGGSVQTGGSLRLSCAASGYTYLRGCMGWFRQAPGKEREGVAVMDVVGDRRSYIDSVKGRFTISRDNAANSVYLQMDNLKPEDTAMYYCTAGPNCVGWRSGLDYWGQGTQVTVSSASHHHHHH
B8: IL10R binding molecule of SEQ ID NO: 293 (bispecific antibody)
chain: QVQLQESGGGSVQAGGSLRLSCGASGYTYSSYCMGWFRQVPGKEREGVAVIDSDGSTSYADSVKGRFTISKDNGKNTLYLQMNSLKPEDTAMYYCAADLGHYRPPCGVLYLGMDYWGKGTQVTVSSGGGSQVQLQESGGGSVQAGGSLRLSCAASRYTYNSYCMGWFRQAPGKEREGVATIDSDGMTRYADSVKGRFTISKDNAKNTLYLQMNSLKPEDTAMYYCAADADCTIAAMTTNPLGQGTQVTVSSASHHHHHH
B9: IL10R binding molecule of SEQ ID NO: 298 (bispecific antibody)
chain: QVQLQESGGGSVQAGGSLRLSCAASGYSNCSYDMTWYRQAPGKEREFVSAIHSDGSTRYADSVKGRFFISQDNAKNTVYLQMNSLKPEDTAMYYCKTDPLHCRAHGGSWYSVRANYWGQGTQVTVSSGGGSQVQLQESGGGSVQAGGSLRLSCAASGYTYSSGCMGWFRQAPGKEREAVAAINSDGSTSYADSVKGRFTISKDNAKNTLYLQMNSLKPEDTAMYYCAAEPYCSGGYPRWSVAEFGYWGQGTQVTVSSASHHHHHH
B10: IL10R binding molecule of SEQ ID NO: 299 (bispecific antibody)
chain: QVQLQESGGGSVQAGGSLRLSCAASGYSNCSYDMTWYRQAPGKEREFVSAIHSDGSTRYADSVKGRFFISQDNAKNTVYLQMNSLKPEDTAMYYCKTDPLHCRAHGGSWYSVRANYWGQGTQVTVSSGGGSQVQLQESGGGSVQAGGSLRLSCAASGYTYSSYCMGWFRQAPGKEREGVAHIDSDGSTSYADSVKGRFTISKDNAKNTLYLQMNSLKPEDTAMYYCAADPIPGPGYCDGGPNKYWGQGTQVTVSSASHHHHHH
B11: IL10R binding molecule of SEQ ID NO: 291 (bispecific antibody)
chain: QVQLQESGGGSVQAGGSLRLSCGASGYTYSSYCMGWFRQVPGKEREGVAVIDSDGSTSYADSVKGRFTISKDNGKNTLYLQMNSLKPEDTAMYYCAADLGHYRPPCGVLYLGMDYWGKGTQVTVSSGGGSQVQLQESGGGSVQAGGSLRLSCAASGYTYSSGCMGWFRQAPGKEREAVAAINSDGSTSYADSVKGRFTISKDNAKNTLYLQMNSLKPEDTAMYYCAAEPYCSGGYPRWSVAEFGYWGQGTQVTVSSASHHHHHH
B12: IL10R binding molecule of SEQ ID NO: 290 (bispecific antibody)
chain: QVQLQESGGGSVQAGGSLRLSCTVSGYTYSSNCMGWFRQAPGKEREGVATIYTGGGNTYYADSVKGRFTISQDNAKNTVYLQMNNLKPEDTAMYYCAAEPLSRVYGGSCPTPTFDYWGQGTQVTVSSGGGSQVQLQESGGGSVQTGGSLRLSCAASGYTYLRGCMGWFRQAPGKEREGVAVMDVVGDRRSYIDSVKGRFTISRDNAANSVYLQMDNLKPEDTAMYYCTAGPNCVGWRSGLDYWGQGTQVTVSSASHHHHHH
B13: IL10R binding molecule of SEQ ID NO: 292 (bispecific antibody)
chain: QVQLQESGGGSVQAGGSLRLSCGASGYTYSSYCMGWFRQVPGKEREGVAVIDSDGSTSYADSVKGRFTISKDNGKNTLYLQMNSLKPEDTAMYYCAADLGHYRPPCGVLYLGMDYWGKGTQVTVSSGGGSQVQLQESGGGSVQAGGSLRLSCAASGYTYSSYCMGWFRQAPGKEREGVAHIDSDGSTSYADSVKGRFTISKDNAKNTLYLQMNSLKPEDTAMYYCAADPIPGPGYCDGGPNKYWGQGTQVTVSSASHHHHHH

molecular target: T1, human IL-10 receptor (hIL-10R alpha and …); test: cell-based or functional assay

Point of comparison: B4, “Abs 630 (25 nM)” value 0.49 Abs 630. Against it:
- B1 — higher, 0.54 Abs 630
- B2 — higher, 2.05 Abs 630
- B3 — the same, 0.49 Abs 630
- B5 — higher, 2.08 Abs 630
- B6 — higher, 0.72 Abs 630
- B7 — lower, 0.46 Abs 630
- B8 — higher, 0.54 Abs 630
- B9 — higher, 0.84 Abs 630
- B10 — lower, 0.47 Abs 630
- B11 — higher, 1.73 Abs 630
- B12 — the same, 0.49 Abs 630
- B13 — higher, 0.78 Abs 630

Point of comparison: B9, “Abs 630 (100 nM)” value 0.38 Abs 630. Against it:
- B1 — the same, 0.38 Abs 630
- B2 — higher, 1.91 Abs 630
- B3 — higher, 0.39 Abs 630
- B4 — the same, 0.38 Abs 630
- B5 — higher, 2.11 Abs 630
- B6 — higher, 0.46 Abs 630
- B7 — lower, 0.36 Abs 630
- B8 — higher, 0.43 Abs 630
- B10 — lower, 0.37 Abs 630
- B11 — higher, 0.59 Abs 630
- B12 — lower, 0.37 Abs 630
- B13 — higher, 0.47 Abs 630

From US20250163167A1 (SYNTHEKINE, published 2025)
